Measurements reported in paper PMC5463187 (Nature microbiology, 2017).

B1: hRSV97 (antibody, V domains shown)
VH: EVQLVESGGTLVQPGRSLRLSCAASGFNFEEYAMHWVRQVPGKGLEWVARINWNGGIIGYADSVKGRFTISRDNAKKSLYLQMNSLRTDDSALYYCGKDVFWAVAGTGGPIDSWGQGTLVTVSS
VL: DIVMTQSPSSLSASIGDRVTISCRASRDISNYLAWYQQKSGKVPKLLIYAASTLESGVPSRFSGSGSGTDFTLTISSLQPEDVATYYCQNYNSAQMCSFGQGPSLEIK
notes: also called mAb hRSV97
B2: hRSV139 (antibody, V domains shown)
VH: QVQLVQSGAEVKKPGASVKVSCKASGYVFSNYGISWVRQAPGQGLEWMGWISAYNGNTEFAQKFQGRITMTTDTSTNTAYLEVRGLRSDDTAVYYCSRQSGVSGVPEFQDWGQGTLVTVSS
VL: QAVVTQSPLSLPVTLGQPASISCRSSQSLVYSNGDTYLSWFQQRPGQSPRRLIYKVSNRDSGVPDRFSASGSGTDFTLKISRVEAEDVGVYYCMQGTHWPPPTFGQGTRLEIK
notes: also called mAb hRSV139
B3: hRSV90 (human mAb, IgG) (antibody, V domains shown)
VH: EVQLVESGGGLVQPRRSLRLSCAASGFTFDDYTIHWVRQAPGKGLEWVSGITWNSGYIGYADSVKGRFTISRDNARNSLYLQMNSLRAEDTALYYCVRDAYVSGSDYYYYGLDVWGRGTLVTVSS
VL: EIVMTSSPATLSVSPGERVTLFCRASQSVISNLAWYQQKSGQAPRLLIYGASTRATGIPSRFSGSGSGTEFTLTISSLQSEDFAVYFCQQYNNWPLTFGGGTQVNVQ
notes: IgG1, kappa; also called mAb hRSV90
B4: hRSV61 (antibody, V domains shown)
VH: QVQLVQSGAELKKPGASVKVSCKASGYTFTNHGITWVRQAPGQGLEWMSWISGYNGNTQYAQKFQGRVTMTTDTSTRTAYMELRSLTSDDTAVYYCARDNGVVVGPPDYWGQGTLVTVSS
VL: DIQMTQSPSTLSASVGDRVTISCRASQSISSWLAWYQQKPGKPPKLLIYKASGLQTGVPSRFSGSGSGTEFTLTISSLQPDDFATYYCQYYHSLSAFGQGTKVEIK
notes: also called mAb hRSV61
B5: hRSV20 (antibody, V domains shown)
VH: QVQLVESGGGLVQPGRSLRLSCAASGFTFDDYAMHWVRQAPGRGLEWVSGISWNSGIAVYADSVKGRFTISRDNAKKSLYLQINSLRAEDTALYYCVKDNYASGSYSSYYYYYGLDLWGQGTLVTVSS
VL: EIVMTQSPATLSVSPGERATLSCRASQSIISNLAWYQQKPGQAPRLLIYGVSTRATGIPARFSGSGSDTEFTLSISSLQSEDFAVYYCQQYNNWPITFGQGTRLEIK
notes: also called mAb hRSV20
B6: hRSV12 (antibody, V domains shown)
VH: QVQLVQSGAEVKKPGTSVRVSCKTSGYNFMNYGIYWVRQAPGQGLEWVGWISAYNGQTDRAQKFQGRVTMTTDISTNTGYMDLRSLRSDDTAVYFCARGPPVIAAVSLEYWGRGTLVTVSS
VL: EVVMTQSPLSLPVTLGQPASISCKSSQSLVHSNGDTYLNWFQQRPGQSPRRLIYKVSNRDSGVPDRFSGSGSGTDFTLKISRVETEDVGVYYCMQATHWPGSFGQGTKLEIK

What follows are binders tested against T1, RSV strain 18537 post-fusion F (Human respiratory syncytial virus …, UniProt P13843, strain) (assay: ELISA). Settings: both partners purified.
T1 construct: also called RSV B 18537 (post); source: HEK293, transfected, purified from culture supernatant (HiTrap Talon crude)
B1: no binding (tested: 1 μg ml^−1). B2: no binding (tested: 1 μg ml^−1). B3: no binding (tested: 1 μg ml^−1). B4: no binding (tested: 1 μg ml^−1). B5: no binding (tested: 1 μg ml^−1).

These binders were tested against T2, RSV strain A2 post-fusion F (Human respiratory syncytial virus …, UniProt P03420, strain) (assay: ELISA). Settings: both partners purified.
T2 construct: source: HEK293, transfected, purified from culture supernatant (HiTrap Talon crude)
B1: no binding (tested: 1 μg ml^−1). B2: no binding (tested: 1 μg ml^−1). B3: no binding (tested: 1 μg ml^−1). B4: no binding (tested: 1 μg ml^−1). B5: no binding (tested: 1 μg ml^−1).

What follows are binders tested against RSV strain A2 pre-fusion F, single-chain triple mutant (SC-TM) construct (respiratory syncytial virus subgroup A …) (assay: cell-based or functional assay). Settings: not given.
With B1 the “plaque-reduction neutralization of RSV A2 (IC50)” value was 0.35 µg/mL. B2 was tested, and the “plaque-reduction neutralization of RSV A2 (IC50)” value was 0.323 µg/mL. For B3, the “plaque-reduction neutralization of RSV A2 (IC50)” value was 0.004 µg/mL. With B4 the “plaque-reduction neutralization of RSV A2 (IC50)” value was 0.09 µg/mL. For B5, the “plaque-reduction neutralization of RSV A2 (IC50)” value was 0.045 µg/mL. In the case of B6, the “plaque-reduction neutralization of RSV A2 (IC50)” value is reported as 0.176 µg/mL.

Each binder was assayed against RSV strain 18537 B pre-fusion F (Ds-Cav1) (Human respiratory syncytial virus …, UniProt P13843, stabilised) (assay: cell-based or functional assay). Settings: not given.
In the case of B6, the “plaque-reduction neutralization of RSV 18537 B (IC50)” value is reported as 0.126 µg/mL.
